Experimental data as given in article PMC11649929.

Target: 5*MYC-HSD17B13 (Mouse) (UniProt Q8VCR2)
Assay: co-immunoprecipitation (IP: MYC) and Western blotting, band intensity
Settings: HEK293T cells transfected with EGFP-Rab2A plasmids and MYC-HSD17B13; parent: 3.3

Chain of UniProt Q8VCR2 (Q8VCR2 whole entry): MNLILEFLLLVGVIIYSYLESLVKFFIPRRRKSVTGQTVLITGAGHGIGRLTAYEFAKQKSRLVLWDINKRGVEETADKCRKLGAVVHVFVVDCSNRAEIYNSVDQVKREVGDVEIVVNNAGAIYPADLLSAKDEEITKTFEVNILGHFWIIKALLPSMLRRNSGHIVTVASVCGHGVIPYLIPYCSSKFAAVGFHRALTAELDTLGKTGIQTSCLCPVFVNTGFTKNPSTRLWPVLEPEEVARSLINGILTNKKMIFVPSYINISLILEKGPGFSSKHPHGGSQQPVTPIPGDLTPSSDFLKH

response: 0.9
Substance: Rab2A, wild type, expressed from a plasmid in HEK293T cells (tag not told) (from UniProt P53994) Q32...E42-A...A
